Results: PMC9889962

Target: recombinant human FcγRI receptor (CD64) (UniProt P12314)
Test: SPR
Details: immobilized human FcγRI (CD64); parent: est. 100; read off a plot

Sequence of recombinant human FcγRI receptor (CD64) (P12314 16-374): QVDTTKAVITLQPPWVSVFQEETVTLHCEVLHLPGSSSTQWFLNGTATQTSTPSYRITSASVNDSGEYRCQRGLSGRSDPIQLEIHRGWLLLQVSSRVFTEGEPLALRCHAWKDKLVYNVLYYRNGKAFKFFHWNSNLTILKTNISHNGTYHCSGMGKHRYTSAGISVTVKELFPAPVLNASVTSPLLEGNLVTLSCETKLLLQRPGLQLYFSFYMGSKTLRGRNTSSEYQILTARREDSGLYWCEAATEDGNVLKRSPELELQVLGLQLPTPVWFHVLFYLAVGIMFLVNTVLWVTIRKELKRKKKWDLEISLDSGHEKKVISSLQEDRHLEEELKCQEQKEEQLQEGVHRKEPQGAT

| Substance | percent of parent [%] |
| --- | --- |
| IgG1 (control) Agly | 24 |
| IgG1 (control) DAPA | 34 |
| IgG1 (control) FES | 21 |
| IgG1 (control) FQQ | 32 |
| IgG1 (control) LAGA | 8.5 |
| IgG1 (control) LALA | 27 |
| IgG1 (control) LALAKA | 26 |
| IgG1 (control) LALE | 8 |
| IgG1 (control) LGGR | 6 |
| IgG1 (control) Sigma | 3.5 |
